Assay [1] concerns DSS model of inflammatory bowel disease. In words: DSS model: colon length and colon weight to length ratio. The conditions noted are these: DSS treated mice. It is filed as in vivo, C57BL/6 mice. The protocol:
(§1) Eight-week old C57BL/6 mice were housed 5 animals were cage and given food and water ad libitum for 7 days. Following the 7-day acclimation period, treatments were initiated concurrently with addition of 2.5% DSS to the drinking water. […] The mice were treated with 2.5% dextran sodium sulfate (DSS) in their drinking water for 6 days. Treatments were continued with SG-14 or […]-GLP2 twice a day (b.i.d.) in the morning and evening (every 8 and 16 hr) with i.p. injections at 50 nmoles/kg. Fresh 2.5% DSS drinking water was prepared every 2 days. Colon length was measured in mice included in the DSS model described in Example 7. […] The graphs in FIG. 10 and FIG. 11 represent data pooled from the single experiment (n=10).

Assay [2] has the same test system. Kind of assay: DSS model: colonic tissue histopathology score. The assay is classed as in vivo, C57BL/6 mice. The conditions noted are these: FIG. 12A. The protocol:
Eight-week old C57BL/6 mice were housed 5 animals were cage and given food and water ad libitum for 7 days. Following the 7-day acclimation period, treatments were initiated concurrently with addition of 2.5% DSS to the drinking water. […] The mice were treated with 2.5% dextran sodium sulfate (DSS) in their drinking water for 6 days. Treatments were continued with SG-14 or Gly2-GLP2 twice a day (b.i.d.) in the morning and evening (every 8 and 16 hr) with i.p. injections at 50 nmoles/kg. Fresh 2.5% DSS drinking water was prepared every 2 days.
Colon tissue was collected from mice in the DSS model described in this Example 7. Tissues were fixed in 10% formalin, processed for paraffin embedding and sectioned. Tissue sections were stained with Hematoxylin and Eosin and scored for pathology by a pathologist specializing in gastrointestinal disease. The scoring system used multiple pathology readouts including inflammation, edema, transmural inflammation, mucosal hyperplasia, dysplasia, loss of mucosal architecture, the extent of tissue affected, and the extent of tissue affected by the most severe pathology. Each readout was scored on a scale of 0-4 and a total score was generated by totaling all readout values for each treatment. […] The graph in FIG. 12A and images in […] represent data from the single experiment (n=10).

The test system is the same in assay [3]. Kind of assay: DSS model: 4 KDa-FITC dextran translocation across the epithelial barrier. The conditions noted are these: 50 nmoles/kg i.p. b.i.d., 2.5% DSS 6 days; FIG. 6. The assay is classed as in vivo, C57BL/6 mice. The protocol: Eight-week old C57BL/6 mice were housed 5 animals were cage and given food and water ad libitum for 7 days. Following the 7-day acclimation period, treatments were initiated concurrently with addition of 2.5% DSS to the drinking water. […] The mice were treated with 2.5% dextran sodium sulfate (DSS) in their drinking water for 6 days. Treatments were continued with SG-14 or […]-GLP2 twice a day (b.i.d.) in the morning and evening (every 8 and 16 hr) with i.p. injections at 50 nmoles/kg. Fresh 2.5% DSS drinking water was prepared every 2 days. On day six, mice were fasted for four hours and then orally gavaged with 600 mg/kg 4 KDa dextran labeled with fluorescein isothiocyanate (FITC) [4 KDa-FITC]. One hour after the 4 KDa-FITC gavage mice were euthanized, blood was collected and FITC signal was measured in serum. […] Results are shown in FIG. 6, and are presented as mean SEM. The graph in FIG. 6 represents data pooled from the single experiment (n=10).

A further assay concerns muc2. In words: muc2 gene expression in epithelial cell monolayer (qRT-PCR). The conditions noted are these: SG-14 1 pg/ml (40 nM) 6 hours prior to HK E. coli for 24 hours; p=0.87; FIG. 4. It is filed as cell-based, human. Here is the method:
Gene expression was measured in the epithelial cell monolayer from the apical chamber of the co-culture TEER assay described in Example 2. Total RNA was isolated from the epithelial cell monolayer, cDNA was synthesized. qRT-PCR was performed on cDNA generated from the HCT8 & HT29-MTX cells treated with SG-14 ([…]; 40 nM) for 6 hours prior to addition of HK E. coli for 24 hours. muc2 gene expression is graphed as mean fold change ±SEM. Statistical analysis was performed by a one-way ANOVA compared to HK E. coli and a Fishers LSD test was used for multiple comparisons.
In general terms: Quantitative PCR measures a nucleic acid by following its amplification.

Assay [4] deals with DSS model of inflammatory bowel disease. Kind of assay: DSS model: body weight. It is filed as in vivo, C57BL/6 mice. The conditions noted are these: 50 nmoles/kg i.p. b.i.d., 2.5% DSS; FIG. 8. Here is the method: as §1, with “days. Body weight” for “days. Colon length”, “measured daily from” for “measured in”, “in this Example. Percent change from starting weight on day 0 was determined for each mouse.” for “in Example 7.”, “The graph” for “The graphs”, “FIG. 8 represents” for “FIG. 10 and FIG. 11 represent”

Assay [5] has as its system HCT8 enterocytes and HT29-MTX goblet cells (epithelial monolayer) co-cultured with U937 monocytes. In words: Co-culture trans-epithelial electrical resistance (TEER) assay, barrier disruption by heat killed E. coli. The assay is classed as cell-based, human.
Method: Assays were performed as described below in trans-well plates where co-cultures of multiple cell types were performed utilizing a permeable membrane to separate cells. In the apical (top) chamber, human colonic epithelial cells, consisting of a mixture of enterocytes and goblet cells, were cultured until cells obtained tight junction formation and barrier function capacity as assessed by measurement of trans-epithelial electrical resistance (TEER). In the basolateral chamber, monocytes were cultured separately. Epithelial cells were primed with inflammatory cytokines.
Cell culture. The HCT8 human enterocyte cell line (ATCC Cat. No. CCL-244) was maintained in RPMI-1640 medium supplemented with 10% fetal bovine serum, 100 IU/ml penicillin, 100 µg/ml streptomycin, 10 µg/ml gentamicin and 0.25 µg/ml amphotericin (cRPMI). HT29-MTX human goblet cells (Sigma-Aldrich (St. Louis, MO; Cat. No. 12040401) were maintained in DMEM medium with 10% fetal bovine serum, 100 IU/ml penicillin, 100 µg/ml streptomycin, 10 µg/ml gentamicin and 0.25 µg/ml amphotericin (cDMEM). Epithelial cells were passaged by trypsinization and were used between 5 and 15 passages following thawing from liquid nitrogen stocks. U937 monocytes (ATCC Cat. No. 700928) were maintained in cRPMI medium as a suspension culture, and split by dilution as needed to maintain cells between 5×10^5 and 2×10^6 cells/ml. U937 cells were used up to passage 18 following thawing from liquid nitrogen stocks.
Epithelial cell culture. A mixture of HCT8 enterocytes and HT29-MTX goblet cells were plated at a 9:1 ratio, respectively, in the apical chamber of the transwell plate as described previously (Berget et al., 2017, Int J Mol Sci, 18:1573; Beduneau et al., 2014, Eur J Pharm Biopharm, 87:290-298). […] Epithelial cells were trypsinized from culture flasks and viable cells determined by trypan blue counting. […]
Co-culture assay. […] Trans-epithelial electrical resistance (TEER) readings were measured after the IFN-γ treatment and were used as the pre-treatment TEER values. […]
The subject of another assay is TNF-α. In words: TNF-α production by monocytes in co-culture TEER assay (Luminex). The conditions noted are these: pre-incubated 6 hours prior to HK E. coli; FIG. 2A. It is filed as cell-based, human. Here is the method:
Production of the pro-inflammatory cytokines TNF-α and IL-23 by monocytes was measured in the tissue culture supernatant from the basolateral chamber of the co-culture TEER assay performed in Example 2. Following TEER readings, the supernatants were centrifuged at 10,000 g for 5 minutes at 4° C. to remove cell debris. Luminex analysis was performed according to the manufacturer's instructions (Magpix instrument and xPonent software version 4.2; Luminex Corporation (Austin, TX)). Luminex analysis was performed to determine the pg/ml concentration of TNF-α and IL-23 produced by monocytes. Luminex analysis utilizes a bead-based system for quantification of multiple cytokines from a single sample. Like an ELISA, Luminex beads are coated with a capture antibody, and incubation with samples allows the target to bind to the capture antibody. Beads are washed and incubated with a fluorescently labeled detection antibody for quantification of bound target. Cytometric analysis is used to differentiate bead populations, which are loaded with differential fluorescent dyes, and to quantify cytokine levels by measuring detection antibody signal. TNF-α production in untreated cells and cells pre-incubated with SG-14 for 6 hours prior to HK E. coli treatment were normalized to pg/ml concentrations elicited by HK E. coli which was set to 1.0. […]

B1: SG-14: Eubacterium eligens protein comprising SEQ ID NO:3; tested form expressed in E. coli, with exogenous GPLG at N-terminus and PHRD at C-terminus (protein)
chain: GCARNSTSTTTASGGETTITSAITKEDTDVTHADDAENYRVSITGDFTVTSDTSDGVTQSGSVYTITKAGEYTVTGLLSEGQLIVDAGNENEVTIVLNGTSITCSSGSPIYVKNASEVKIKSEENSFNEVIDNRNEATEDSSDDAGNAAIYATCDLKLVGKGALVVTGNYNNGIQSKDDLSIKNVIVKVTAVNNAVKVNDAVDIESGNIIAISAKGDGIKTSNSSISNKGNQKGIVTITSGNIDIYAACDGIDASYGADISGDGNLNIYTDTYSEYSEEVTSSGSSSGTSSGRDSSANKSASANTVSYVATSDTIANAPSGFGGGNMGSGNAPDMSNGNAPNMNGSSDRNKTGGNRPGMPGDFNESGNSSGQSYSTKGIKAESEINISGFTINICSTDDGIHANSDSGVLETGEDGKGTIVINGGSITISSGDDGMHADKQLDVNDGYINVVTSYEGLEAMTINLNGGKIYVYATDDGINACTGDGKTSPIVNVTGGYIDVTTTSGDTDGIDSNGNYVQTGGFVLVKGGSSSGNVSGSIDVDGTVTITGGTCVALGGVCETPVNSANAYVLGSVSFSSGSYSLKDSSGNEVISFTVDGSFSNGWICSDTLTTGSSYTLYRGADSIADWTQE
modifications: N-terminal GPLG and C-terminal PHRD
As to B1, the Colon length result in assay [1] (FIG. 10) is “prevented colon shortening”. For the same molecule, the “Ratio between colon weight and length” value in assay [1] (FIG. 11) is on record as “significant reduction”. In addition, in assay [2], the “Colon pathology scores vs positive control Gly2-GLP2” value is “further reduced colon pathology scores significantly”. Besides, the “Colonic pathology (total histopathology score) vs DSS” value in assay [2] (H&E sections, readouts scored 0-4) is “significantly reduced colonic pathology”. In assay [3], the “4 KDa-FITC dextran in serum vs DSS mice treated with vehicle” value was “significant reduction” and the “Magnitude of 4 KDa-FITC dextran translocation vs Gly2-GLP2” value is “even lower than the positive control”. Also, the “muc2 gene expression vs HK E. coli without pre-treatment” value in the assay on muc2 is given as “slight inhibition”. In addition, in assay [4], the “Body weight (percent change from day 0) vs vehicle treated DSS mice” value was “significantly improved body weight”. Further, in assay [5] (SG-14 1 pg/ml (40 nM) added 1 hour (FIG. 1A; text also says 30 minutes) before HK E. coli, HK E. coli alone 70.0%), the “TEER of epithelial cell barrier (percent of untreated)” value is 72.2%. For the same molecule, the “TEER of epithelial cell barrier (percent of untreated)” value in assay [5] (SG-14 1 pg/ml (40 nM) pre-incubated 6 hours before HK E. coli (FIG. 1B), without SG-14 71.4%) was 78.7%. In addition, the “TNF-α production normalized to HK E. coli (set to 1.0)” value with TNF-α was 0.77.

Source of the values: patent US12371456B2, “Proteins for the treatment of epithelial barrier function disorders” (Genevive, Inc., priority 2017, dated 2025).
